Key:
[1] = system: MDA-MB-231 cells (human breast cancer cells); type: in vivo; conditions: VP101(hG1DM) 3 mg/kg weekly, olaparib 50 mg/kg daily, alone or in combination; FIG. 39
Source text: 23 days after grafting, the mice were randomly divided into 4 groups of 6 animals by tumor volume. The day of grouping was defined as DO, and olaparib dosing was started on day D0. […] The regimen of the combination therapy group is as follows: the drugs were formulated separately and administered sequentially (no certain order or time interval was required, and one treatment should be given after the completed administration of the other). After the administration, the length and width of tumors in each group were measured, and the tumor volume was calculated.

[2] = system: SK-OV-3 human ovarian cancer cells; type: in vivo; conditions: VP101(hG1DM) 14 mg/kg weekly, olaparib 100 mg/kg daily, alone or in combination; FIG. 41
Source text: 39 days after grafting, the mice were intraperitoneally injected with 3 million activated PBMCs and randomly divided into 4 groups of 6 animals by tumor volume. The day of grouping was defined as D0, and dosing was started on the day of grouping D0. The regimen of the combination therapy group is as follows: the drugs were formulated separately and administered sequentially (no certain order or time interval was required, and one treatment should be given after the completed administration of the other). After the administration, the length and width of tumors in each group were measured, and the tumor volume was calculated.

FcγRI = FcγRI (Homo sapiens, UniProt P12314); assay: Affinity constant assay to FcγRI (Fortebio Octet); conditions: N/A = no binding or extremely weak binding signal
Sequence of FcγRI (P12314 16-374): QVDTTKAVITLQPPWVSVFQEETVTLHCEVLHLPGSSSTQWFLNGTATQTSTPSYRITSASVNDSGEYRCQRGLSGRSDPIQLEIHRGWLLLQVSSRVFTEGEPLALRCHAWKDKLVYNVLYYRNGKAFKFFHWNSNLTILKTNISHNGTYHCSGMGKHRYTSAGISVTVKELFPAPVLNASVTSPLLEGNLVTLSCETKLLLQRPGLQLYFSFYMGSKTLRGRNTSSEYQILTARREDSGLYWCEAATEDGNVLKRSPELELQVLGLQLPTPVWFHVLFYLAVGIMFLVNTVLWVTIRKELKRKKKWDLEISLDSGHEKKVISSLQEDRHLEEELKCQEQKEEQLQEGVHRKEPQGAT
Protocol: 1 μg/mL FcγRIa was immobilized on the HIS1K sensor for 50 s. The sensor was equilibrated in a buffer for 60 s, and the binding of the immobilized CD64 on the sensor to the antibodies at concentrations of 3.12-50 nM (two-fold dilution) was determined for 120 s. The antibody was dissociated in the buffer for 120 s. The sensor was refreshed 4 times in 10 mM glycine pH 1.5, each for 5 s. The detection temperature was 30° C. and the frequency was 0.3 Hz. The data were analyzed by 1:1 model fitting to obtain affinity constants.

FcγRIIIa_F158 = FcγRIIIa_F158 (Homo sapiens, UniProt P08637); assay: Affinity constant assay to FcγRIIIa_F158 (Fortebio Octet); conditions: FcγRIIIa_F158 immobilized on HIS1K sensor, antibody 31.25-500 nM, 30° C., 1:1 model; N/A = no binding or extremely weak binding signal
Sequence of FcγRIIIa_F158 (P08637 17-208 limits assumed): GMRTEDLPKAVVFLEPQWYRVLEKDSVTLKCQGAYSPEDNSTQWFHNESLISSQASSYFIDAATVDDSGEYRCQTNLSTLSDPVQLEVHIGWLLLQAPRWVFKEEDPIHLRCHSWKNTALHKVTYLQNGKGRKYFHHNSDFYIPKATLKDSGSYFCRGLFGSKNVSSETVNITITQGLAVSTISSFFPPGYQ
Protocol: 5 μg/mL FcγRIIIa_F158 was immobilized on the HIS1K sensor for 120 s. The sensor was equilibrated in a buffer for 60 s, and the binding of the immobilized hFcGR3A(F158)-his on the sensor to the antibodies at concentrations of 31.25-500 nM (serial two-fold dilution) was determined for 60 s. The antibody was dissociated in the buffer for 60 s. The sensor was refreshed 4 times in 10 mM glycine pH 1.5, each for 5 s. The detection temperature was 30° C. and the frequency was 0.3 Hz. The data were analyzed by 1:1 model fitting to obtain affinity constants.

[3] = system: CHO-K1-PD1 cells overexpressing PD-1; assay: ADCP activity assay, murine macrophages and CHO-K1-PD1 cells, flow cytometry; type: cell-based; conditions: murine macrophages + CHO-K1-PD1-CFSE cells, antibody 10, 1 and 0.1 μg/mL, 2 h, vs isotype control; FIG. 35
Protocol: The method is as follows:
The femoral bone marrow of C57 mice (purchased from Guangdong Medical Laboratory Animal Center) was first aseptically collected and lysed by erythrocyte lysis buffer on ice for 5 min. The lysis was terminated with DMEM complete medium (containing 10% FBS), and the lysate was centrifuged at 1000 rpm and washed twice. The cell pellet was resuspended in 10 mL of DMEM complete medium and M-CSF was added at a working concentration of 100 ng/mL. The cells were cultured for 7 days at 37° C. and 5% CO2 in a cell culture chamber for induction. Half of the medium was exchanged and M-CSF was added on Days 3 and 5. The induction of cells was completed on day 7. […] The supernatant was discarded and the cells were suspended in DMEM complete medium (containing 10% FBS) and counted. […] CHO-K1-PD1 cells were collected by conventional methods, centrifuged at 170×g for 5 min, resuspended, counted, analyzed for viability and washed once with PBS. […] The cells were counted, transferred to a 96-well plate and centrifuged at 1000×g for 5 min, and the supernatant was discarded. […]
Macrophages in the system were APC^+ positive, and macrophages involved in phagocytosis were APC and CFSE dual positive. The phagocytosis rate was determined as the ratio of the number of dual positive cells to the number of APC positive cells, and the antibody-mediated ADCP activity was evaluated. […]

C1q = C1q (Homo sapiens, UniProt P02745+P02746+P02747); assay: Affinity constant assay to C1q (Fortebio Octet); conditions: antibody immobilized on FAB2G sensor, C1q 0.625-10 nM, 30° C., 1:1 model; N/A = no binding or extremely weak binding signal
Sequence of C1q (P02745 23-245): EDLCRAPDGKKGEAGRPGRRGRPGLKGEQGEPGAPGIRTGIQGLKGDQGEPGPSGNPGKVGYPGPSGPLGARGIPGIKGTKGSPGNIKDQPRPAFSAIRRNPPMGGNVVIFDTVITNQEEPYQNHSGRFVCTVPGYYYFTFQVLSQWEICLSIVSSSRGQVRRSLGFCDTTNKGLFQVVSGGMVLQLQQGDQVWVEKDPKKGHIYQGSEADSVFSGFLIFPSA
Sequence of C1q (P02746 28-253): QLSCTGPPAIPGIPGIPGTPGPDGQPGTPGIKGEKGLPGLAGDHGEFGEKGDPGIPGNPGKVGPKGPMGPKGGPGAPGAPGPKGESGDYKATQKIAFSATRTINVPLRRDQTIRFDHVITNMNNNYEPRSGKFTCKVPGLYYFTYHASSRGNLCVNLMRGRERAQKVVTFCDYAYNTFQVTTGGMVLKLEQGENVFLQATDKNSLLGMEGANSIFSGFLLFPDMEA
Sequence of C1q (P02747 29-245): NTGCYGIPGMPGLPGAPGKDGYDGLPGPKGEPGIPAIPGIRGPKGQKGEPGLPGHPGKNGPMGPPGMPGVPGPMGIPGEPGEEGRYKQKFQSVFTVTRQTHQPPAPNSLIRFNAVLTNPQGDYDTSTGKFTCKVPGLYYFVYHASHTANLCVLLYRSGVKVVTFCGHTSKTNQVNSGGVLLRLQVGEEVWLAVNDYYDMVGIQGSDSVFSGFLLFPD
Protocol: 50 μg/mL antibody was immobilized on the FAB2G sensor at an immobilization height of about 2.0 nm. […] The antigen and antibody were dissociated in the buffer for 60 s. The sensor was refreshed 4 times in 10 mM glycine pH 1.7, each for 5 s. The shaking speed of the sample plate was 1000 rpm, the temperature was 30° C. and the frequency was 0.6 Hz. The data were analyzed by 1:1 model fitting to obtain affinity constants. The data acquisition software was Fortebio Data Acquisition 7.0, and the data analysis software was Fortebio Data Analysis 7.0.

FcγRIIa_H131 = biological target: T1, FcγRIIa_H131 (Homo sapiens, UniProt P12318); assay: Affinity constant assay to FcγRIIa_H131 (Fortebio Octet); conditions: FcγRIIa_H131 immobilized on NTA sensor, antibody 12.5-200 nM, 30° C., 1:1 model; N/A = no binding or extremely weak binding signal
T1 sequence (P12318 34-217 limits assumed): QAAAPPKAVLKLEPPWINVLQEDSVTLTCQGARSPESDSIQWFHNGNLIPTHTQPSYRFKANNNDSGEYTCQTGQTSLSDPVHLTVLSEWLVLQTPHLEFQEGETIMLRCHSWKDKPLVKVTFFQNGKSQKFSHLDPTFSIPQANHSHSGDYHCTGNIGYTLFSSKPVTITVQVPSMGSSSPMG
Protocol: The antibody was dissociated in the buffer for 60 s. The sensor was refreshed in 10 mM glycine pH 1.7 and 10 nM nickel sulfate. […] The data were analyzed by 1:1 model fitting to obtain affinity constants.

Row | Molecule | tolerability / body weight of tumor-bearing mice [1] | tolerability / body weight of tumor-bearing mice [2] | Kd (FcγRI; FcγRIa immobilized on HIS1K sensor, antibody 3.12-50 nM, 30° C., 1:1 model) [nM] | Rmax to FcγRI (FcγRI) | kdis to FcγRI (FcγRI) [s⁻¹] | KD (affinity constant) to FcγRIIIa_F158 (FcγRIIIa_F158) | ADCP activity (phagocytic rate, P %) [3] | KD (affinity constant) to C1q (C1q) | KD (affinity constant) to FcγRIIa_H131 (FcγRIIa_H131)
1 | O=C(c1cc(Cc2n[nH]c(=O)c3ccccc23)ccc1F)N1CCN(C(=O)C2CC2)CC1 [olaparib] | no effect on the body weight | no effect on the body weight | – | – | – | – | – | – | –
2 | Nivolumab: approved PD-1 antibody (Opdivo) purchased from BMS as a reference antibody | – | – | 6.2 | 0.48-0.53 nm | 0.00432 | no binding or an extremely weak binding signal | significant ADCP effect | no binding or an extremely weak binding signal | no binding or an extremely weak binding signal

Reference: patent publication US20250114450A1, “PHARMACEUTICAL COMBINATION CONTAINING ANTI-PD-1-ANTI-VEGFA BISPECIFIC ANTIBODY, AND USE THEREOF” (Akeso Biopharma, Inc., priority 2021, published 2025)
